Measurements: patent US20240327502A1 (Merck Sharp & Dohme, published 2024)
Substitutions are numbered along the chain they refer to.

B1: M2E04 (antibody, V domains shown)
VH: QVQLQESGPGLVKPSEILSLTCTVSRFSINSGYYWGWIRQPPGKGLEWIGCISHAGSIYSNPSLESRVTLSLDTSKNQFSLKLTSVIAADTATYYCAASSNWHNALEYWGQGTLVVVSS
VL: QSVLTQPPSASGTPGQTVTISCSGSRSNMGINWVYWYQQLPGTAPKLVIYRNSQRPSGVPDRFSGSQSGTSASLAISGLRSEDEAVYYCAVWDDSLDGRLFGGGTKLTVL
notes: IgG
B2: M2E05 (antibody, V domains shown)
VH: QVQLQESGPGLVKPSEILSLTCTVSRYSINSGYYWGWIRQPPGKGLEWVGCVSHAGVTYYNPSLESRVAVSLDTSKNQFSLKMTSVSAADTAMYYCAASSNWHNALEYWGQGTLVAVSS
VL: B1 VL with T17S, R26S, V48L, A85G, V86H, S95V, L96V, D97S
notes: IgG
B3: M2E11L (antibody, V domains shown)
VH: QVQLVQSGAIMKKPGSSVKVSCKASGGTFTNFAFSWVRQAPGQGLEWMGGIIPFVGPANYAPQFQGRVTITADESTTTAYMELNSLRSEDTAVYYCARVRGFGETAYFYHYYMDVWGKGTTVTVSS
VL: QTVVTQEPSLSVSPGGTVTLTCGLSSGSVSTSHFPSWYQQIPGQPPRTLIYSTITRSSGVPDRFSGSILGNKATLTITGAQADDECDYYCVLYLGGGIPHWVFGGGTKLTVL
B4: M1A11 (antibody, V domains shown)
VH: QLQLQESGPGLVKPSETLSLTCTVSGDSISSSSFYWGWIRQPPGKGLEWIATIYYTGSTEYNPSLKSRISISVDTSMNQFSLRLRSVTAADTAVYYCARQEGSSWSNWFDPWGQGTLVTVSS
VL: DIQMTQSPSSLSASVGDRVTITCRASQSISTYLNWYQQKPGKAPKLLIYVASSLQSGVPSRFSGSGSGTDFTLTISSLQPEDFATYYCQQGYSIPWTFGHGTKVEIK
notes: IgG; also called MIA11
B5: M2C10 (antibody, V domains shown)
VH: QVQLVESGGGVVQPGRSLRLSCAASGFTFNNYAMHWVRQAPGKGLEWVALISDDGSKKYFADALKGRFTIFRDNSKNTLYLQMNSLRAEDTAVYYCARDPTPLGEYYFDYWGQGTLVTVSS
VL: DIQMTQSPSSLSASVGDRVTITCRASQTISGYLNWYQQKPGKAPNLLIYTASSLESGVPSRFSGSGSETDFTLTISSLQPEDFATYYCQQSYRMPLTFGGGTRVSLK
notes: IgG
B6: M2E01 (antibody, V domains shown)
VH: QLQLQESGPGLVKPSETLSLTCTVSGGSISSSTYYWGWIRQPPGKGLEWIGTIYYSGSTDYNPSLKSRLTISVDTSKNQFSLRLRSVTAADTAVYYCARLVSPYDQFDYWGQGTLVTVSS
VL: DIQMTQSPSSLSASVGDRVTITCRASQTITTYLSWYLQKPGKAPKLLIYAASSWQSGVPSRFSGSGSGTDFTLTISSLQPEDFATYYCQQSYSTPYTFGQGTKLEIK
notes: IgG
B7: M2E08 (antibody, V domains shown)
VH: EVQLVESGGDLVLPGGSLRLSCEASGFMFSSYAMNWVRQAPGKGLERVSGISGSGGNTYYADSVKGRFTISRDNSKNIVYLQMNSLRAEDTAVYYCAKDLGNDYFYYIDVWGKGTTVMVSS
VL: QSVLTQPPSVSGAPGQRVTISCTGTNFNIGAGYDVQWYQQLPGAAPKLLIHGNTYRPSGVPDRFSGSKSGTSASLAITGLQAEDEADYYCQSYDSSLSMVFGGGTKLTVL
notes: IgG

Each binder was assayed against T1, Processed stabilized hMPV PreF trimer (115BV) (human metapneumovirus, strain B2) (assay: BLI, ratio to unprocessed PreF trimer).
T1 construct: also called Processed hMPV PreF trimer; processed PreF
For B1, the “processed/unprocessed PreF trimer binding ratio” value was 0.51.
B2 was tested, and the “processed/unprocessed PreF trimer binding ratio” value was 0.54.
With B3 the “processed/unprocessed PreF trimer binding ratio” value was 0.49.
For B4, the “processed/unprocessed PreF trimer binding ratio” value was 0.15.
With B5 the “processed/unprocessed PreF trimer binding ratio” value was 0.25.
B6 was tested, and the “processed/unprocessed PreF trimer binding ratio” value was 0.31.
For B7, the “processed/unprocessed PreF trimer binding ratio” value was 0.22.

What follows are binders tested against T2, Unprocessed hMPV PreF trimer (human metapneumovirus, strain B2) (assay: BLI, mAb on anti-human Fc sensor).
T2 construct: also called Unprocessed hMPV WT PreF trimer; unprocessed hMPV PreF trimeric antigen
B1 gave an Octet binding response of 0.391 nm.
Work on B2 yielded an Octet binding response of 0.426 nm.
B3 was tested, and the Octet binding response was 0.332 nm.
With B4 the Octet binding response was 0.342 nm.
For B5, the Octet binding response was 0.382 nm.
Binder B6 has an Octet binding response of 0.408 nm.
In the case of B7, the Octet binding response is reported as 0.349 nm.

What follows are binders tested against T3, hMPV PostF trimer (human metapneumovirus, strain B2) (assay: BLI, mAb on anti-human Fc sensor).
T3 construct: also called MPV PostF (dPFv1)
B1 showed an Octet binding response of 0.0702 nm.
In the case of B2, the Octet binding response is reported as 0.0401 nm.
For B3, the Octet binding response was 0.0538 nm.
B4 gave an Octet binding response of 0.0143 nm.
B5 gave an Octet binding response of -0.0261 nm.
With B6 the Octet binding response was -0.016 nm.
For B7, the Octet binding response was -0.0233 nm.

The binders below were run against T1, Processed stabilized hMPV PreF trimer … (assay: BLI, mAb on anti-human Fc sensor).
In the case of B1, the Octet binding response is reported as 0.199 nm.
Work on B2 yielded an Octet binding response of 0.228 nm.
B3 gave an Octet binding response of 0.162 nm.
B4 gave an Octet binding response of 0.0515 nm.
With B5 the Octet binding response was 0.0939 nm.
For B6, the Octet binding response was 0.126 nm.
B7 gave an Octet binding response of 0.0781 nm.
